# Experimental data: paper PMC9889962
# pKd: −log10 of the molar value.
# How the values were obtained:
# Test in all cases: SPR
# [1] = target: SARS-CoV-2 Omicron XBB.1 spike protein trimer (SARS-CoV-2) (UniProt P0DTC2)
# [2] = target: SARS-CoV-2 Omicron BA2.75 spike protein trimer (SARS-CoV-2) (UniProt P0DTC2)
# [3] = target: SARS-CoV-2 Omicron BA.2 spike protein trimer (SARS-CoV-2) (UniProt P0DTC2)
# [4] = target: SARS-CoV-2 Omicron BQ.1.1 spike protein trimer (SARS-CoV-2) (UniProt P0DTC2)
# [5] = target: SARS-CoV-2 Omicron BA4.6 spike protein trimer (SARS-CoV-2) (UniProt P0DTC2)
# [6] = target: SARS-CoV-2 Omicron BA.5 spike protein trimer (SARS-CoV-2) (UniProt P0DTC2)
substance,measurement,setting,value
LiVE-Longer YTE chimera (ACE-2 LVE/STR-YTE fusion protein) (from UniProt Q9BYF1 18-740) (Fc fusion),pKd,[1],9.67
same,pKd,[2],12.88
same,pKd,[3],13.11
same,pKd,[4],11.74
same,pKd,[5],9.07
same,pKd,[6],11.27
